Reference: patent US20030229005A1

Columns and labels:
Assay in all cases: cell-based or functional assay
[1] = target: human Gelatinase-A (human) (UniProt P08253)
collagenase 1 = collagenase 1 (UniProt P03956)
gelatinase B = gelatinase B (UniProt P14780)
Sequence of gelatinase B (P14780 107-707 limits assumed): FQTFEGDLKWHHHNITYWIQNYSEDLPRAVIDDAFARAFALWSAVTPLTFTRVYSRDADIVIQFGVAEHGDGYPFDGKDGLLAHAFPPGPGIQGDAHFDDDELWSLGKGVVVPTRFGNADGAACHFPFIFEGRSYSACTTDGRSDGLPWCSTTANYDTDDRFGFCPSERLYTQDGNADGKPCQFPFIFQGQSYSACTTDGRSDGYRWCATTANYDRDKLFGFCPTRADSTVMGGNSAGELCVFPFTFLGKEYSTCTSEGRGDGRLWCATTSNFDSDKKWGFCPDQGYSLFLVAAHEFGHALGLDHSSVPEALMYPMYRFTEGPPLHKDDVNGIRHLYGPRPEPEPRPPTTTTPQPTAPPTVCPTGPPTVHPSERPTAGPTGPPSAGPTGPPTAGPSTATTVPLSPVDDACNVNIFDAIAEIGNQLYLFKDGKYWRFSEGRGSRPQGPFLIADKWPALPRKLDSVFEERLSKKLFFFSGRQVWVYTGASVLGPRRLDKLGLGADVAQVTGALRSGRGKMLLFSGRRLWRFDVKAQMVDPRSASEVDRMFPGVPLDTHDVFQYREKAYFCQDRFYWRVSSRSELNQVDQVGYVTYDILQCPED

Sequence of collagenase 1 (P03956 100-469 limits assumed): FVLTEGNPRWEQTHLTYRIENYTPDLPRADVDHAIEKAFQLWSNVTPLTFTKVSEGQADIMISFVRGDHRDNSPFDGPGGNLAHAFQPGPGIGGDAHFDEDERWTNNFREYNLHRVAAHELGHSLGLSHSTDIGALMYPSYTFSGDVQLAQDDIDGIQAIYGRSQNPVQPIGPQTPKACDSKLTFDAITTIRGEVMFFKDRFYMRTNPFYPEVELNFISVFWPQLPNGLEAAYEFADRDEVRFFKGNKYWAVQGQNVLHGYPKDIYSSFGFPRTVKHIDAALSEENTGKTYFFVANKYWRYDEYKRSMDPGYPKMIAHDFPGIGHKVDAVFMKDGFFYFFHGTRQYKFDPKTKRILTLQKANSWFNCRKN
Sequence of human Gelatinase-A (human) (P08253 110-660 limits assumed): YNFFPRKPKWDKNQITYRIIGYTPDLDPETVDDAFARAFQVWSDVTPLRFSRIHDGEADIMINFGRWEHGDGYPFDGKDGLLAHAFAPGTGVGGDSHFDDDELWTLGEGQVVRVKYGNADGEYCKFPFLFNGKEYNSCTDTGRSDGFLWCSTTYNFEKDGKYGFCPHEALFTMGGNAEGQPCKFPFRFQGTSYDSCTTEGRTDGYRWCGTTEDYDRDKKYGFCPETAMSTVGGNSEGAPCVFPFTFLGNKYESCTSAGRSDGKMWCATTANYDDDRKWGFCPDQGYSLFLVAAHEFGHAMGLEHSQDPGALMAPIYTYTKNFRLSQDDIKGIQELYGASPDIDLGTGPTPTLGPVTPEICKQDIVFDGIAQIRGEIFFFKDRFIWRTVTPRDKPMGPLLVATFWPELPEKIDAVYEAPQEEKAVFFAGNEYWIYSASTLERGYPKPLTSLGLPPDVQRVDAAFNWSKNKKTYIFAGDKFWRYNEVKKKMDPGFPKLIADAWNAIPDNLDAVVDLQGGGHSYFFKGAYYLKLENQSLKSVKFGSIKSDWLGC

Average Percent Inhibition, 2.10-3.10 h, TypeIICOL 44 ug/ul [1]: 86%
Average Percent Inhibition, 2.10-3.10 h, TypeIICOL .18 ug/ul [1]: 7%
Average Percent Inhibition, 2.10-3.10 h, TypeIICOL .55 ug/ul [1]: 12%
Average Percent Inhibition, 3.10-4.10 h, TypeIICOL 1.6 ug/ul [1]: -37%
Average Percent Inhibition, 3.10-4.10 h, TypeIICOL 4.9 ug/ul [1]: 37%
Average Percent Inhibition, 3.10-4.10 h, TypeIICOL 15 ug/ul [1]: 64%
Average Percent Inhibition, 3.10-4.10 h, TypeIICOL 44 ug/ul [1]: 87%
Average Percent Inhibition, 3.10-4.10 h, TypeIICOL .18 ug/ul [1]: 3%
Average Percent Inhibition, 3.10-4.10 h, TypeIICOL .55 ug/ul [1]: 8%
Average Percent Inhibition, 4.10-5.10 h, TypeIICOL 1.6 ug/ul [1]: -68%
Average Percent Inhibition, 4.10-5.10 h, TypeIICOL 4.9 ug/ul [1]: 27%
Average Percent Inhibition, 4.10-5.10 h, TypeIICOL 15 ug/ul [1]: 53%
Average Percent Inhibition, 4.10-5.10 h, TypeIICOL 44 ug/ul [1]: 85%
Average Percent Inhibition, 4.10-5.10 h, TypeIICOL .18 ug/ul [1]: 0%
Average Percent Inhibition, 4.10-5.10 h, TypeIICOL .55 ug/ul [1]: 4%
Average Percent Inhibition, 5.10-6.10 h, TypeIICOL 1.6 ug/ul [1]: -104%
Average Percent Inhibition, 5.10-6.10 h, TypeIICOL 4.9 ug/ul [1]: 19%
Average Percent Inhibition, 5.10-6.10 h, TypeIICOL 15 ug/ul [1]: 41%
Average Percent Inhibition, 5.10-6.10 h, TypeIICOL 44 ug/ul [1]: 82%
Average Percent Inhibition, 5.10-6.10 h, TypeIICOL .18 ug/ul [1]: -3%
Average Percent Inhibition, 5.10-6.10 h, TypeIICOL .55 ug/ul [1]: -1%
Average Percent Inhibition from 1.1 to 6.6 Hours, Type II Collagen 0.18 ug/ml (collagenase 1): 0%
Average Percent Inhibition from 1.1 to 6.6 Hours, Type II Collagen 0.54 ug/ml (collagenase 1): 3%
Average Percent Inhibition from 1.1 to 6.6 Hours, Type II Collagen 1.63 ug/ml (collagenase 1): 0%
Average Percent Inhibition from 1.1 to 6.6 Hours, Type II Collagen 4.89 ug/ml (collagenase 1): 2%
Average Percent Inhibition from 1.1 to 6.6 Hours, Type II Collagen 14.67 ug/ml (collagenase 1): 10%
Average Percent Inhibition from 1.1 to 6.6 Hours, Type II Collagen 44.00 ug/ml (collagenase 1): 15%
Average Percent Inhibition, 0.10-1.10 h, TypeIICOL 1.6 ug/ul (collagenase 1): 19%
Average Percent Inhibition, 0.10-1.10 h, TypeIICOL 4.9 ug/ul (collagenase 1): 37%
Average Percent Inhibition, 0.10-1.10 h, TypeIICOL 15 ug/ul (collagenase 1): 44%
Average Percent Inhibition, 0.10-1.10 h, TypeIICOL 44 ug/ul (collagenase 1): 50%
Average Percent Inhibition, 0.10-1.10 h, TypeIICOL .18 ug/ul (collagenase 1): 17%
Average Percent Inhibition, 0.10-1.10 h, TypeIICOL .55 ug/ul (collagenase 1): 15%
Average Percent Inhibition, 1.10-2.10 h, TypeIICOL 1.6 ug/ul (collagenase 1): 6%
Average Percent Inhibition, 1.10-2.10 h, TypeIICOL 4.9 ug/ul (collagenase 1): 13%
Average Percent Inhibition, 1.10-2.10 h, TypeIICOL 15 ug/ul (collagenase 1): 21%
Average Percent Inhibition, 1.10-2.10 h, TypeIICOL 44 ug/ul (collagenase 1): 29%
Average Percent Inhibition, 1.10-2.10 h, TypeIICOL .18 ug/ul (collagenase 1): 3%
Average Percent Inhibition, 1.10-2.10 h, TypeIICOL .55 ug/ul (collagenase 1): 6%
Average Percent Inhibition, 2.10-3.10 h, TypeIICOL 1.6 ug/ul (collagenase 1): 0%
Average Percent Inhibition, 2.10-3.10 h, TypeIICOL 4.9 ug/ul (collagenase 1): 3%
Average Percent Inhibition, 2.10-3.10 h, TypeIICOL 15 ug/ul (collagenase 1): 12%
Average Percent Inhibition, 2.10-3.10 h, TypeIICOL 44 ug/ul (collagenase 1): 18%
Average Percent Inhibition, 2.10-3.10 h, TypeIICOL .18 ug/ul (collagenase 1): 0%
Average Percent Inhibition, 2.10-3.10 h, TypeIICOL .55 ug/ul (collagenase 1): 3%
Average Percent Inhibition, 3.10-4.10 h, TypeIICOL 1.6 ug/ul (collagenase 1): -2%
Average Percent Inhibition, 3.10-4.10 h, TypeIICOL 4.9 ug/ul (collagenase 1): 0%
Average Percent Inhibition, 3.10-4.10 h, TypeIICOL 15 ug/ul (collagenase 1): 8%
Average Percent Inhibition, 3.10-4.10 h, TypeIICOL 44 ug/ul (collagenase 1): 12%
Average Percent Inhibition, 3.10-4.10 h, TypeIICOL .18 ug/ul (collagenase 1): -1%
Average Percent Inhibition, 3.10-4.10 h, TypeIICOL .55 ug/ul (collagenase 1): 2%
Average Percent Inhibition, 4.10-5.10 h, TypeIICOL 1.6 ug/ul (collagenase 1): -3%
Average Percent Inhibition, 4.10-5.10 h, TypeIICOL 4.9 ug/ul (collagenase 1): -2%
Average Percent Inhibition, 4.10-5.10 h, TypeIICOL 15 ug/ul (collagenase 1): 6%
Average Percent Inhibition, 4.10-5.10 h, TypeIICOL 44 ug/ul (collagenase 1): 9%
Average Percent Inhibition, 4.10-5.10 h, TypeIICOL .18 ug/ul (collagenase 1): -1%
Average Percent Inhibition, 4.10-5.10 h, TypeIICOL .55 ug/ul (collagenase 1): 1%
Average Percent Inhibition, 5.10-6.10 h, TypeIICOL 1.6 ug/ul (collagenase 1): -4%
Average Percent Inhibition, 5.10-6.10 h, TypeIICOL 4.9 ug/ul (collagenase 1): -4%
Average Percent Inhibition, 5.10-6.10 h, TypeIICOL 15 ug/ul (collagenase 1): 4%
Average Percent Inhibition, 5.10-6.10 h, TypeIICOL 44 ug/ul (collagenase 1): 7%
Average Percent Inhibition, 5.10-6.10 h, TypeIICOL .18 ug/ul (collagenase 1): -1%
Average Percent Inhibition, 5.10-6.10 h, TypeIICOL .55 ug/ul (collagenase 1): 1%
Average Percent Inhibition from 1.1 to 6.6 Hours, Type II Collagen 0.18 ug/ml (gelatinase B): 9%
Average Percent Inhibition from 1.1 to 6.6 Hours, Type II Collagen 0.54 ug/ml (gelatinase B): 9%
Average Percent Inhibition from 1.1 to 6.6 Hours, Type II Collagen 1.63 ug/ml (gelatinase B): 12%
Average Percent Inhibition from 1.1 to 6.6 Hours, Type II Collagen 4.89 ug/ml (gelatinase B): 38%
Average Percent Inhibition from 1.1 to 6.6 Hours, Type II Collagen 14.67 ug/ml (gelatinase B): 65%
Average Percent Inhibition from 1.1 to 6.6 Hours, Type II Collagen 44.00 ug/ml (gelatinase B): 84%
Average Percent Inhibition, 0.10-1.10 h, TypeIICOL 1.6 ug/ul (gelatinase B): -28%
Average Percent Inhibition, 0.10-1.10 h, TypeIICOL 4.9 ug/ul (gelatinase B): 35%
Average Percent Inhibition, 0.10-1.10 h, TypeIICOL 15 ug/ul (gelatinase B): 57%
Average Percent Inhibition, 0.10-1.10 h, TypeIICOL 44 ug/ul (gelatinase B): 41%
Average Percent Inhibition, 0.10-1.10 h, TypeIICOL .18 ug/ul (gelatinase B): 3%
Average Percent Inhibition, 0.10-1.10 h, TypeIICOL .55 ug/ul (gelatinase B): 3%
Average Percent Inhibition, 1.10-2.10 h, TypeIICOL 1.6 ug/ul (gelatinase B): 14%
Average Percent Inhibition, 1.10-2.10 h, TypeIICOL 4.9 ug/ul (gelatinase B): 43%
Average Percent Inhibition, 1.10-2.10 h, TypeIICOL 15 ug/ul (gelatinase B): 67%
Average Percent Inhibition, 1.10-2.10 h, TypeIICOL 44 ug/ul (gelatinase B): 82%
Average Percent Inhibition, 1.10-2.10 h, TypeIICOL .18 ug/ul (gelatinase B): 12%
Average Percent Inhibition, 1.10-2.10 h, TypeIICOL .55 ug/ul (gelatinase B): 10%
Average Percent Inhibition, 2.10-3.10 h, TypeIICOL 1.6 ug/ul (gelatinase B): 19%
Average Percent Inhibition, 2.10-3.10 h, TypeIICOL 4.9 ug/ul (gelatinase B): 47%
Average Percent Inhibition, 2.10-3.10 h, TypeIICOL 15 ug/ul (gelatinase B): 72%
Average Percent Inhibition, 2.10-3.10 h, TypeIICOL 44 ug/ul (gelatinase B): 87%
Average Percent Inhibition, 2.10-3.10 h, TypeIICOL .18 ug/ul (gelatinase B): 11%
Average Percent Inhibition, 2.10-3.10 h, TypeIICOL .55 ug/ul (gelatinase B): 12%
Average Percent Inhibition, 3.10-4.10 h, TypeIICOL 1.6 ug/ul (gelatinase B): 15%
Average Percent Inhibition, 3.10-4.10 h, TypeIICOL 4.9 ug/ul (gelatinase B): 41%
Average Percent Inhibition, 3.10-4.10 h, TypeIICOL 15 ug/ul (gelatinase B): 69%
Average Percent Inhibition, 3.10-4.10 h, TypeIICOL 44 ug/ul (gelatinase B): 87%
Average Percent Inhibition, 3.10-4.10 h, TypeIICOL .18 ug/ul (gelatinase B): 9%
Average Percent Inhibition, 3.10-4.10 h, TypeIICOL .55 ug/ul (gelatinase B): 10%
Average Percent Inhibition, 4.10-5.10 h, TypeIICOL 1.6 ug/ul (gelatinase B): 11%
Average Percent Inhibition, 4.10-5.10 h, TypeIICOL 4.9 ug/ul (gelatinase B): 35%
Average Percent Inhibition, 4.10-5.10 h, TypeIICOL 15 ug/ul (gelatinase B): 64%
Average Percent Inhibition, 4.10-5.10 h, TypeIICOL 44 ug/ul (gelatinase B): 85%
Average Percent Inhibition, 4.10-5.10 h, TypeIICOL .18 ug/ul (gelatinase B): 7%
Average Percent Inhibition, 4.10-5.10 h, TypeIICOL .55 ug/ul (gelatinase B): 8%
Average Percent Inhibition, 5.10-6.10 h, TypeIICOL 1.6 ug/ul (gelatinase B): 7%
Average Percent Inhibition, 5.10-6.10 h, TypeIICOL 4.9 ug/ul (gelatinase B): 30%
Average Percent Inhibition, 5.10-6.10 h, TypeIICOL 15 ug/ul (gelatinase B): 59%
Average Percent Inhibition, 5.10-6.10 h, TypeIICOL 44 ug/ul (gelatinase B): 83%
Average Percent Inhibition, 5.10-6.10 h, TypeIICOL .18 ug/ul (gelatinase B): 5%
Average Percent Inhibition, 5.10-6.10 h, TypeIICOL .55 ug/ul (gelatinase B): 6%
Substance: bovine type II collagen (from UniProt P02459 182-1241)
